± gives the standard deviation of the averaged measurements.
B1: library; a variant is named by its letters at N, in order (parent)
chain: GCUGUCACCGGAAUACCAGCAUCGUCUUGAUGCCCUUGGAAGUCCGGUCUGAUGAGUCCNNNNNGGACGAAACAGC

Columns and labels:
theophylline [1] = variants of: B1; test: FACS-Seq fitted mean relative fluorescence mCherry/BFP without ligand (log10 relative fluorescence); higher = higher reporter protein expression; details: HEK293T, ligand present: no
How it was run: (§1)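 Sorting into 6 bins by mCherry/BFP followed 48 h of incubation with or without ligand. The cells were enriched HEK293T libraries lentivirally bearing an mCherry reporter with the ribozyme switch and an EF1α-BFP marker, and bin genomic DNA was PCR-amplified, barcoded and sequenced on MiSeq. Fluorescence is the fitted normal mean of the bin counts. Means were fitted on log10(mCherry/BFP), scaled to five spiked-in control ribozymes.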

theophylline [2] = variants of: B1; test: normalized RNA/DNA level with ligand (relative to sTRSVctl = 100) (log10 (% of sTRSVctl)); higher = less ribozyme self-cleavage, higher mRNA level; details: ligand concentration (+) RNA-Seq: 5 mM, HEK293T, reporter: mCherry (pCS4076), ligand present: yes
How it was run: (§2)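 For each 6-well well, 4 µg of library plasmid encoding mCherry-linked ribozyme switches, or eGFP-linked ones in some ligand experiments, was transfected into HEK293T. Any ligand was added 1 h before transfection, and RNA was extracted with EDTA 72 h after it, then reverse-transcribed, amplified, barcoded and sequenced. RNA level was obtained by dividing RNA reads by DNA reads, normalizing to a spiked-in non-cleaving sequence or to the top sequences, then scaling and log-transforming. The top set was 25 sequences, scaling was ×100 with log10, and ≥100 DNA reads were required.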

theophylline [3] = variants of: B1; test: normalized RNA/DNA level without ligand (relative to sTRSVctl = 100) (log10 (% of sTRSVctl)); higher = less ribozyme self-cleavage, higher mRNA level; details: HEK293T, reporter: mCherry (pCS4076), ligand present: no
How it was run: as §2

theophylline [4] = variants of: B1; test: FACS-Seq fitted mean relative fluorescence mCherry/BFP with ligand (log10 relative fluorescence); ligand concentration (+) FACS-Seq: 1 mM; higher = higher reporter protein expression; details: HEK293T, ligand present: yes
How it was run: as §1

Variant | FACS-Seq fitted mean (log10) (theophylline [1]) | normalized RNA/DNA level with ligand (log10) (theophylline [2]) | normalized RNA/DNA level without ligand (log10) (theophylline [3]) | FACS-Seq fitted mean (log10) (theophylline [4])
ACGAU | 0.425 ± 0.067 | 2.06 ± 0.059 | 1.69 ± 0.15 | 0.552 ± 0.049
CUACC | 0.996 ± 0.11 | 1.968 ± 0.015 | 1.96 ± 0.11 | 1.02 ± 0.03
AUGCA | 0.792 ± 0.023 | 2.023 ± 0.014 | 1.841 ± 0.0049 | 0.96 ± 0.14
AUAAU | 0.702 ± 0.0096 | 2.002 ± 0.012 | 1.79 ± 0.079 | 0.703 ± 0.064
ACUUU | 0.872 ± 0.15 | 2.012 ± 0.0039 | 1.89 ± 0.022 | 0.813 ± 0.11
GUUGU | 0.526 ± 0.054 | 1.93 ± 0.19 | 1.84 ± 0.058 | 0.701 ± 0.16
UAUGG | 0.926 ± 0.12 | 1.965 ± 0.014 | 1.86 ± 0.12 | 0.992 ± 0.017
GAAAU | 0.796 ± 0.0017 | 2.01 ± 0.038 | 1.71 ± 0.059 | 1.04 ± 0.097
UAGCA | 0.6175 ± 0.0054 | 1.95 ± 0.052 | 1.55 ± 0.091 | 0.757 ± 0.046
CGCUU | 0.746 ± 0.19 | 1.99 ± 0.087 | 1.62 ± 0.075 | 0.896 ± 0.11
UCACU | 0.354 ± 0.029 | 2.003 ± 0.0094 | 1.85 ± 0.092 | 0.438 ± 0.015
UUUUU | 0.93 ± 0.071 | 2.01 ± 0.027 | 1.95 ± 0.15 | 0.991 ± 0.017
AAUGU | 0.7078 ± 0.0026 | 1.99 ± 0.056 | 1.77 ± 0.23 | 0.788 ± 0.011
GAGGG | 0.948 ± 0.031 | 1.91 ± 0.22 | 1.67 ± 0.03 | 1.07 ± 0.07
GAACA | 0.228 ± 0.096 | 1.92 ± 0.025 | 1.6 ± 0.015 | 0.116 ± 0.032
UGUGU | 0.525 ± 0.032 | 1.88 ± 0.044 | 1.87 ± 0.15 | 0.589 ± 0.048
UAAAA | 0.164 ± 0.019 | 1.99 ± 0.029 | 1.206 ± 0.0047 | 0.589 ± 0.038
AAGCA | 0.538 ± 0.016 | 2.03 ± 0.051 | 1.8 ± 0.033 | 0.682 ± 0.023
CACAA | 0.062 ± 0.032 | 2.014 ± 0.0084 | 1.56 ± 0.11 | 0.3195 ± 0.0011
UAGUA | 0.245 ± 0.011 | 1.87 ± 0.019 | 1.45 ± 0.074 | 0.503 ± 0.008
CUAUC | 1.23 ± 0.19 | 1.89 ± 0.059 | 1.93 ± 0.073 | 1.16 ± 0.078
CUGCC | 0.906 ± 0.094 | 2.09 ± 0.045 | 1.9591 ± 0.0014 | 0.841 ± 0.055
GAAUC | 0.7173 ± 0.0037 | 1.962 ± 0.011 | 1.855 ± 0.015 | 0.683 ± 0.059
AUUCA | 0.9176 ± 0.0013 | 2.04 ± 0.066 | 1.83 ± 0.15 | 0.971 ± 0.12

Variant | FACS-Seq fitted mean (log10) (theophylline [1]) | normalized RNA/DNA level with ligand (log10) (theophylline [2]) | normalized RNA/DNA level without ligand (log10) (theophylline [3]) | FACS-Seq fitted mean (log10) (theophylline [4])
UAUAG | 0.9651 ± 0.0015 | 1.95 ± 0.053 | 1.855 ± 0.015 | 0.896 ± 0.067
UAACG | 0.784 ± 0.07 | 1.99 ± 0.04 | 1.87 ± 0.18 | 0.711 ± 0.018
AGUUC | 0.981 ± 0.011 | 2 ± 0.034 | 1.89 ± 0.049 | 1.02 ± 0.049
CAACA | 0.729 ± 0.046 | 1.98 ± 0.018 | 1.53 ± 0.0043 | 0.886 ± 0.058
UAUUG | 0.752 ± 0.025 | 2.07 ± 0.029 | 1.921 ± 0.017 | 0.768 ± 0.032
ACAUC | 0.595 ± 0.053 | 2 ± 0.098 | 1.94 ± 0.03 | 0.599 ± 0.055
ACCAA | 0.759 ± 0.043 | 2.02 ± 0.082 | 1.74 ± 0.069 | 0.832 ± 0.016
CCGAA | -0.229 ± 0.1 | 1.93 ± 0.06 | 1.4 ± 0.089 | 0.178 ± 0.11
CGCCU | 0.291 ± 0.031 | 2.08 ± 0.074 | 1.78 ± 0.12 | 0.38 ± 0.021
ACACU | 0.829 ± 0.042 | 2.04 ± 0.094 | 1.85 ± 0.14 | 0.802 ± 0.071
CCUGC | 0.976 ± 0.012 | 2.02 ± 0.034 | 2.09 ± 0.054 | 0.899 ± 0.054
UACUU | 0.59 ± 0.079 | 2.01 ± 0.023 | 1.9 ± 0.041 | 0.754 ± 0.026
AACAA | 0.377 ± 0.039 | 1.99 ± 0.086 | 1.45 ± 0.25 | 0.704 ± 0.013
CCUAU | 0.969 ± 0.015 | 2.06 ± 0.025 | 1.867 ± 0.0061 | 1.05 ± 0.031
ACCGG | 0.955 ± 0.0037 | 1.95 ± 0.021 | 1.94 ± 0.076 | 1.05 ± 0.12
ACAGC | 1 ± 0.1 | 1.97 ± 0.018 | 1.95 ± 0.053 | 0.971 ± 0.05
CCUAC | 0.87 ± 0.071 | 2.01 ± 0.038 | 1.99 ± 0.072 | 0.871 ± 0.066
UAACC | 0.589 ± 0.058 | 1.92 ± 0.025 | 1.92 ± 0.04 | 0.702 ± 0.061
ACUUA | 0.5998 ± 0.0045 | 2.05 ± 0.037 | 1.78 ± 0.032 | 0.66 ± 0.015
GCAUU | 0.42 ± 0.1 | 1.938 ± 0.0078 | 1.792 ± 0.0054 | 0.4217 ± 0.00082
GCCAU | 0.669 ± 0.019 | 1.99 ± 0.077 | 1.88 ± 0.12 | 0.779 ± 0.05
CCCAU | 0.699 ± 0.08 | 1.97 ± 0.028 | 1.901 ± 0.019 | 0.822 ± 0.04
UGAGA | 0.307 ± 0.012 | 1.922 ± 0.0069 | 1.5 ± 0.13 | 0.709 ± 0.041
CGCAC | 0.436 ± 0.065 | 2.01 ± 0.17 | 1.9 ± 0.14 | 0.521 ± 0.017

Variant | FACS-Seq fitted mean (log10) (theophylline [1]) | normalized RNA/DNA level with ligand (log10) (theophylline [2]) | normalized RNA/DNA level without ligand (log10) (theophylline [3]) | FACS-Seq fitted mean (log10) (theophylline [4])
CUAAU | 0.912 ± 0.092 | 2.02 ± 0.015 | 1.7874 ± 0.001 | 0.979 ± 0.014
ACGUA | 0.721 ± 0.11 | 2.011 ± 0.017 | 1.62 ± 0.19 | 0.9207 ± 0.0039
AUUAG | 0.738 ± 0.021 | 2.049 ± 0.0068 | 1.9 ± 0.094 | 0.738 ± 0.013
AGAUU | 0.511 ± 0.068 | 1.99 ± 0.12 | 1.736 ± 0.01 | 0.627 ± 0.07
CUCAC | 1.14 ± 0.019 | 2.02 ± 0.075 | 2.02 ± 0.13 | 1.12 ± 0.075
CCAGC | 0.9205 ± 0.0079 | 1.96 ± 0.056 | 1.994 ± 0.008 | 0.864 ± 0.14
AUGCC | 0.828 ± 0.054 | 2 ± 0.033 | 1.96 ± 0.071 | 0.852 ± 0.022
ACGCA | 0.6839 ± 0.0046 | 1.99 ± 0.053 | 1.77 ± 0.03 | 0.824 ± 0.049
AACAG | 0.587 ± 0.0063 | 1.855 ± 0.014 | 1.78 ± 0.055 | 0.677 ± 0.035
AGCAG | 0.801 ± 0.041 | 2.03 ± 0.12 | 1.81 ± 0.027 | 0.944 ± 0.048
GCAAC | 0.716 ± 0.09 | 1.93 ± 0.066 | 1.826 ± 0.0042 | 0.739 ± 0.094
GACUG | 0.5397 ± 0.0016 | 1.98 ± 0.076 | 1.804 ± 0.0069 | 0.61 ± 0.081
CACCU | 0.774 ± 0.091 | 2.06 ± 0.075 | 1.78 ± 0.097 | 0.9241 ± 4.2e-05
CACUA | 0.228 ± 0.023 | 1.99 ± 0.058 | 1.44 ± 0.063 | 0.437 ± 0.048
CGAGU | 0.892 ± 0.093 | 1.992 ± 0.01 | 1.9 ± 0.02 | 0.873 ± 0.12
ACAAU | 0.476 ± 0.2 | 1.99 ± 0.077 | 1.75 ± 0.096 | 0.44 ± 0.037
ACCCC | 0.753 ± 0.1 | 2.037 ± 0.0066 | 1.99 ± 0.053 | 0.657 ± 0.08
GAACC | 0.828 ± 0.017 | 2 ± 0.024 | 1.87 ± 0.13 | 0.834 ± 0.11
ACGGC | 1.25 ± 0.15 | 1.97 ± 0.059 | 1.97 ± 0.067 | 1.17 ± 0.014
UGACU | 1.21 ± 0.077 | 1.9948 ± 0.0009 | 1.87 ± 0.022 | 1.22 ± 0.12
ACCGA | 0.6309 ± 0.0029 | 2.006 ± 0.015 | 1.77 ± 0.059 | 0.7685 ± 0.0034
ACACG | 1.12 ± 0.1 | 1.93 ± 0.024 | 1.8 ± 0.026 | 1.2 ± 0.07
GAGUU | 0.55 ± 0.013 | 1.89 ± 0.025 | 1.6731 ± 0.00032 | 0.742 ± 0.063

Source: the supplement of paper PMC6757056
